enzymatic_activity data for 1 substance are collected here from article PMC5007552.

The conditions of the series: phosphorylation at S486.

Consider “SGK3: AZD8055 (mTOR catalytic inhibitor, 0.1 uM, 1 h)”, for which the enzymatic_activity entry is recorded as “decreases”.
